Experimental findings from publication PMC6028960, “The kinetochore proteins CENP-E and CENP-F directly and specifically interact with distinct BUB mitotic checkpoint Ser/Thr kinases” (The Journal of Biological Chemistry, 2018) are described below.

B1: mCherry-CENP-F(2922–2990) (domain or fragment, human, UniProt P49454 2826-2894, looked up)
chain: QKTGTVMDTKVDELTTEIKELKETLEEKTKEADEYLDKYCSLLISHEKLEKAKEMLETQVAHLCSQQSK
notes: Dimer by sedimentation velocity AUC; source: E. coli BL21 (DE3) RP plus, purified (HisTrap, Superdex 75 SEC); not shown: mCherry, N-terminal, kept
B2: mCherry-CENP-F(2866–2990) (domain or fragment, human, UniProt P49454 2770-2894, looked up)
chain: LKKTKMDNLKYVNQLKKENERAQGKMKLLIKSCKQLEEEKEILQKELSQLQAAQEKQKTGTVMDTKVDELTTEIKELKETLEEKTKEADEYLDKYCSLLISHEKLEKAKEMLETQVAHLCSQQSK
notes: as for B1
B3: BUBR1 pseudokinase domain (KinD, residues 705–1050) (domain or fragment, human, UniProt O60566 705-1050, looked up)
chain: EKLELTNETSENPTQSPWCSQYRRQLLKSLPELSASAELCIEDRPMPKLEIEKEIELGNEDYCIKREYLICEDYKLFWVAPRNSAELTVIKVSSQPVPWDFYINLKLKERLNEDFDHFCSCYQYQDGCIVWHQYINCFTLQDLLQHSEYITHEITVLIIYNLLTIVEMLHKAEIVHGDLSPRCLILRNRIHDPYDCNKNNQALKIVDFSYSVDLRVQLDVFTLSGFRTVQILEGQKILANCSSPYQVDLFGIADLAHLLLFKEHLQVFWDGSFWKLSQNISELKDGELWNKFFVRILNANDEATVSVLGELAAEMNGVFDTTFQSHLNKALWKVGKLTSPGALLFQ
notes: human BUBR1, pseudokinase domain, residues 705-1050; also called BUBR1 pseudo-kinase domain (KinD) construct; BUBR1 KinD
B4: eGFP-CENP-E^2070-C (domain or fragment, human, UniProt Q02224 2070-2701, looked up)
chain: RQNHQVKPEKRLLSDGQQHLTESLREKCSRIKELLKRYSEMDDHYECLNRLSLDLEKEIEFQKELSMRVKANLSLPYLQTKHIEKLFTANQRCSMEFHRIMKKLKYVLSYVTKIKEEQHESINKFEMDFIDEVEKQKELLIKIQHLQQDCDVPSRELRDLKLNQNMDLHIEEILKDFSESEFPSIKTEFQQVLSNRKEMTQFLEEWLNTRFDIEKLKNGIQKENDRICQVNNFFNNRIIAIMNESTEFEERSATISKEWEQDLKSLKEKNEKLFKNYQTLKTSLASGAQVNPTTQDNKNPHVTSRATQLTTEKIRELENSLHEAKESAMHKESKIIKMQKELEVTNDIIAKLQAKVHESNKCLEKTKETIQVLQDKVALGAKPYKEEIEDLKMKLVKIDLEKMKNAKEFEKEISATKATVEYQKEVIRLLRENLRRSQQAQDTSVISEHTDPQPSNKPLTCGGGSGIVQNTKALILKSEHIRLEKEISKLKQQNEQLIKQKNELLSNNQHLSNEVKTWKERTLKREAHKQVTCENSPKSPKVTGTASKKKQITPSQCKERNLQDPVPKESPKSCFFDSRSKSLPSPHPVRYFDNSSLGLCPEVQNAGAESVDSQPGPWHASSGKDVPECKTQ
notes: codon-optimized cDNA; N-terminal PreScission-cleavable His6-eGFP tag from the pLIB-eGFP vector; source: insect cells (baculovirus made in Sf9, Tnao38 infected), purified (HisTrap, Superose 6 SEC); not shown: eGFP, N-terminal, kept

Series [1] deals with the molecule itself. The series can be described thus: AUC; sedimentation velocity, 42,000 rpm, 20 °C; 6 μM mCherry-CENP-F fragment alone, scanned at 587 nm; self-association.
Series [2] concerns the target B4. The series can be described thus: SEC; analytical SEC; 4 μM BUB1 or BUBR1 constructs or BUB1/BUB3 or BUBR1/BUB3 complexes mixed with 16 μM CENP-E or CENP-F proteins in 30 μl; 4 °C; Superose 6 5/150 or Superdex 75 5/150; 50 mM Hepes pH 8.0, 100 mM NaCl, 5% glycerol, 0.5 mM TCEP; fractions by SDS-PAGE. The note with it: both partners purified. A general note: Size exclusion chromatography separates by hydrodynamic size, large species first.

Series [3] deals with T1, BUBR1/BUB3 complex (human | , UniProt O60566 1-1050; O43684 1-328).
T1 construct: human BUB1-related (BUBR1) mitotic checkpoint Ser/Thr kinase, full-length, co-expressed with BUB3; BUB3, co-expressed with BUBR1; also called dimeric BUBR1/BUB3 complex
T1 sequence (O43684 whole entry, one chain of several): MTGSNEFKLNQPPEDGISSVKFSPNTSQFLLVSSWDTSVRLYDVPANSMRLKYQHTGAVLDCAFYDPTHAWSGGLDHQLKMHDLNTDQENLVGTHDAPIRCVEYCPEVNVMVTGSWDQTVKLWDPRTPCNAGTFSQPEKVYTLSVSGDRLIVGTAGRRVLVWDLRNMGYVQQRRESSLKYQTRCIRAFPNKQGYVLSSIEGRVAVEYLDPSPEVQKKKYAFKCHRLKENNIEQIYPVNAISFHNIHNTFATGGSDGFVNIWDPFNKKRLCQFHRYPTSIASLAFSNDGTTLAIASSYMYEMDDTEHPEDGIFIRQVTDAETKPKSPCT
The series is described as above. The note with it: both partners purified.

The term stoichiometry N denotes a count of units in the complex or per binding partner.

Turning to B1, in series [1], the “stoichiometry N” value amounted to 2.

Take B2: the “stoichiometry N” value in series [1] came to 2.

As to B3, the binding result in series [2] is reported as “binds”.

For B4, the binding result in series [3] was “binds”.
